{
  "source": "the DeepSol protein solubility set",
  "test": "soluble on expression in E. coli; label from the status in PepcDB or PDB records",
  "data": [
    {"sequence": "MSLTQKRLGLIMNGITGRMGLNQHLIRSVVAIRAQGGVPLSDGTKVQLDPILIGRNADKVEGLAKQYGIERWGTDLDAALADPGNEIFFDAATTQMRPILLEKAIRAGKHVYCEKPIATNLPEAVRICRLAEEKGVKNGVVQDKLFLPGLQKLKLLRDSGFFGRMISVRGEFGYWVFEGDWGQPAQRPSWNYRSQEGGGMILDMVCHWRYVLDNLFGEVKSVSCLGATHIPSRVDERGQPYEATADDAAYATFELQDGVIAHINMSWCTRVYRDDLVTFQVDGTLGSAVAGLSDCVFQSRVGTPRPVWNPDQKQTMDFYNHWQPVPDTAVFDNGFKVQWEMFIRHVVEDAPYRFTLREGAKGVQLVECALQSWKERRWIDVPTLEASERAVLQAAEEGHHHHHH", "values": [
      {"measurement": "soluble on expression in E. coli", "result": "soluble"}
    ]},
    {"sequence": "MATLEITDIALVQPSHQPLSNDQTLSLSHLDNDNNLHVSFRYLRVYSSSSSTVAGESPSAVVSASLATALVHYYPLAGSLRRSASDNRFELLCSAGQSVPLVNATVNCTLESVGYLDGPDPGFVERLVPDPTREEGMVNPCILQVTMFQCGGWVLGASIHHAICDGLGASLFFNAMAELARGATKISIEPVWDRERLLGPREKPWVGAPVRDFLSLDKDFDPYGQAIGDVKRDCFFVTDDSLDQLKAQLLEKSGLNFTTFEALGAYIWRAKVRAAKTEEKENVKFVYSINIRRLMNPPLPKGYWGNGCVPMYAQIKAGELIEQPIWKTAELIKQSKSNTSDEYVRSFIDFQELHHKDGINAGTGVTGFTDWRYLGHSTIDFGWGGPVTVLPLSNKLLGSMEPCFFLPYSTDAAAGSKKDSGFKVLVNLRESAMPEFKEAMDKFHKGEFALS", "values": [
      {"measurement": "soluble on expression in E. coli", "result": "soluble"}
    ]},
    {"sequence": "SLAFEPPRRLVRAFGETAPEGDDWLATLPEVAERAVARRGLTVERVQVPGGRSSLVVLVRTAEGAPAVLKLAPRRARPESERAALVHWGGRGAVQVREEGDEEGVLLLERLHPDVSVRSLPEAKALLEAAGTLRRLWVEPPGSHPFETVAERTGRQAEAMRAGAAADAQVAPLVDAALAARAELLGGPSEQRLLHGTFRQSKVLAGDRMPWLAVGPDPVVGESAFDLARLVRDRVEDLIAQPSGASTTRRRIKRLAESLEVDQERLRGWTLFRAVESGVRARRVGRERDAELLLEFAGWL", "values": [
      {"measurement": "soluble on expression in E. coli", "result": "soluble"}
    ]},
    {"sequence": "GMSQRIGVIDMGTNTFHLLITDIVNDRPHTLVNEKSAVGLGKGGITKGFITEEAMDRALDTLKKFRVILDEHAVVHVIATGTSAVRSGSNKQVLIDRIKKEVNIDVEVIDGAREAELIFRGVQQAVPMEDHISLAMDIGGGSVEFIIGNKNEILWKQSFEIGGQRLIDRFHVHDPMREDDRVMMHNYFDEVLVPLEKAINTWRPTQLIGCSGTFDTLAEMNIQHHREKIALEKQTSYLLSLPDFNRLRKQLVASTRRERLAIAGMIELRADMVVVAICLIEHVLKLVSTNAITVSTYSLKEGVLYTMLDGVKVGS", "values": [
      {"measurement": "soluble on expression in E. coli", "result": "soluble"}
    ]},
    {"sequence": "MDLQTSSKFLQNQLAHLFQCERDSADVENSEGCFSTGNDPAFKDERLRFEFHTEPFNRRYLLRVVKVPP", "values": [
      {"measurement": "soluble on expression in E. coli", "result": "not soluble"}
    ]},
    {"sequence": "GHHHHHHMKVGYVAIVGKPNVGKSTLLNNLLGTKVSIISPKAGTTRMRVLGVKNIPNEAQIIFLDTPGIYEPKKSDVLGHSMVEIAKQSLEEADVILFMIDATEGWRPRDEEIYQNFIKPLNKPVIVVINKIDKIGPAKNVLPLIDEIHKKHPELTEIVPISALKGANLDELVKTILKYLPEGEPLFPEDMITDLPLRLLAAEIVREKAMMLTREEVPTSIAVKINEIKPGDANPNMLVIKGEIIVDRENLKPIIIGKKGQRLKEIGKRARQELELILGRPVYLELWVKVVPDWRRRPEYVRLFGYAL", "values": [
      {"measurement": "soluble on expression in E. coli", "result": "soluble"}
    ]},
    {"sequence": "VKSNAQIDSVKCFSTMNDEEIVEDSRAGDDRALEYLINKYKGFVRAKARTYFLIGADREDIIQEGMIGLYKAIRDFRKDKLSSFRAFAELCITRQIITAIKTATRQKHIPLNSYVSLNKPIFDEESDRTLMDIISEESINDPEEMVINREEFSGIEAKMGEILSSLECEVLTSYLQGKSYQEIAVELDRHVKSIDNALQRVKRKLEKYLEESRI", "values": [
      {"measurement": "soluble on expression in E. coli", "result": "soluble"}
    ]},
    {"sequence": "MGSDKIHHHHHHMRTRYVDIDDRMEDLADRLRGDPEIVQDFLARYELSWLYHENALEGVVYSSQELATALANAPLADVTFVSALQEIRNHKVALDLVREEAAAKKPKLNLTTVKKLYETLGHGIEGRSVAEYRKDMPLHRAYFHDIAQPPKIQPALQKLLEATEGADFRNAHPIQQACKLHHGFMQVFPFTENSGRVARLLANLVLLHAGYKLPVIVHATDRQRYYESLRLPDTILRDLTMEALDNALTQAEKYFAEAPRARKAAR", "values": [
      {"measurement": "soluble on expression in E. coli", "result": "not soluble"}
    ]},
    {"sequence": "GPGSMKKFMLNTKASLGLVGEKTVDEDYNKRSASLKALNEALNEYSTAMDKAKHAMREVMHSLGKASKAFEKLNSGSCIPEPLKDFSEDFKKAIEHLQQYALQEFMNTMETTVIKTGHAIRADYEECVRVDQQRQKTVNEYDVYRSAVDKKETEYAKKGKDLKESKTYEEDTKTRDELKADYEASDKLFKSSHDALESNVVSKGRLCMREFFCCTSEFLSALSTEMKRLHEKSLLLGA", "values": [
      {"measurement": "soluble on expression in E. coli", "result": "not soluble"}
    ]},
    {"sequence": "MSLEEQLYKRDPVSGAILVPMTVNDQPIEKNGDKMPLKFKLGPLSYQNMAFITAKDKYKLYPVRIPRLDTSKEFSAYVSGLFEIYRDLGDDRVFNVPTIGVVNSNFAKEHNATVNLAMEAILNELEVFIGRVKDQDGRVNRFYELEESLTVLNCLRTMYFILDGQDVEENRSEFIESLLNWINRSDGEPDEEYIEQVFSVKDSTAGKKVFETQYFWKLLNQLVLRGLLSQAIGCIERSDLLPYLSDTCAVSFDAVSDSIELLKQYPKDSSSTFREWKNLVLKLSQAFGSSATDISGELRDYIEDFLLVIGGNQRKILQYSRTWYESFCGFLLYYIPSLELSAEYLQMSLEANVVDITNDWEQPCVDIISGKIHSILPVMESLDSCTAAFTAMICEAKGLIENIFEGEKNSDDYSNEDNEMLEDLFSYRNGMASYMLNSFAFELCSLGDKELWPVAIGLIALSATGTRSAKKMVIAELLPHYPFVTNDDIEWMLSICVEWRLPEIAKEIYTTLGNQMLSAHNIIESIANFSRAGKYELVKSYSWLLFEASCMEGQKLDDPVLNAIVSKNSPAEDDVIIPQDILDCVVTNSMRQTLAPYAVLSQFYELRDREDWGQALRLLLLLIEFPYLPKHYLVLLVAKFLYPIFLLDDKKLMDEDSVATVIEVIETKWDDADEKSSNLYETIIEADKSEGHHHHHH", "values": [
      {"measurement": "soluble on expression in E. coli", "result": "not soluble"}
    ]},
    {"sequence": "MWVEQIEKILTPRTPLILRCRNVPIPLIVSVFVECDMFDESLPISRAMKCLFVSVLCLSVGATAADAKPKIKVVNKTYSVNATTAQDLIQQMDARGPKGFWAYTDWYVKWTGGCDLSVSITYTMPKHKNEAKLDPELRKSWQSFVTALRKHEELHGAHGIQAAQEIEKSKCADGDSVIRKWSEQDKVLDQRTDHGKKDGVVLK", "values": [
      {"measurement": "soluble on expression in E. coli", "result": "not soluble"}
    ]},
    {"sequence": "MSLQDDDFSLFKSEMRGVKRISVDRADTGKPRNDRQQLKQRQLNASVRNDEIRVDGLSDQFVIDVGPEDELSWARDGVQESQLRKLKQGLVPFDGSLDLHGMSVEKARQTLWDFLAEATRLEIRCVRVTHGKAARKDGRSPLVKSHVNTWLRQHPQVLGFTSCLPRHGGTGSVYVMLRRTMLEGRDEEGHHHHHH", "values": [
      {"measurement": "soluble on expression in E. coli", "result": "soluble"}
    ]},
    {"sequence": "MGSDKIHHHHHHMLDRIIGTASANNWLFFCLFNNKFSGDIDSQRLLNMFRSVIAALLACLSYSAHAVVILQYHHVSEDTPKVTSVIPAQFREQMSYLRENGFKVKPLTHVVEAIKQGRELADKTVAITFDDGYQNIADTAHPILKEFGYPYTIFISIDPIERKHKNVMSWATLKRLSDEGVTLANHSWGHEHLIRRLHGEDEQTWLTRITENLLATEAEIEAKTGQSVKMLAYPYGEYNTAIETLVQKLGFVGFGQQSGAAGGYSSLTALPRFPVAGAYADLTSLKAKLYSLNMPVLALTPRNTQLPLGQWRPEMQVTLDMADIVASQVMCFVQGQGAMKPSWESEDTFSIQAVTDLPPGRSRYNCTAPSKASGRYYWFSQAWVRPKNDGTWVKE", "values": [
      {"measurement": "soluble on expression in E. coli", "result": "not soluble"}
    ]},
    {"sequence": "MNNSINHKFHHISRAEYQELLAVSRGDAVADYIIDNVSILDLINGGEISGPIVIKGRYIAGVGAEYTDAPALQRIDARGATAVPGFIDAHLHIESSMMTPVTFETATLPRGLTTVICDPHEIVNVMGEAGFAWFARCAEQARQNQYLQVSSCVPALEGCDVNGASFTLEQMLAWRDHPQVTGLAEMMDYPGVISGQNALLDKLDAFRHLTLDGHCPGLGGKELNAYITAGIENCHESYQLEEGRRKLQLGMSLMIREGSAARNLNALAPLINEFNSPQCMLCTDDRNPWEIAHEGHIDALIRRLIEQHNVPLHVAYRVASWSTARHFGLNHLGLLAPGKQADIVLLSDARKVTVQQVLVKGEPIDAQTLQAEESARLAQSAPPYGNTIARQPVSASDFALQFTPGKRYRVIDVIHNELITHSHSSVYSENGFDRDDVSFIAVLERYGQRLAPACGLLGGFGLNEGALAATVSHDSHNIVVIGRSAEEMALAVNQVIQDGGGLCVVRNGQVQSHLPLPIAGLMSTDTAQSLAEQIDALKAAARECGPLPDEPFIQMAFLSLPVIPALKLTSQGLFDGEKFAFTTLEVTELEHHHHHH", "values": [
      {"measurement": "soluble on expression in E. coli", "result": "soluble"}
    ]},
    {"sequence": "MIAAQLLAYYFTELKDDQVKKIDKYLYAMRLSDETLIDIMTRFRKEMKNGLSRDFNPTATVKMLPTFVRSIPDGSEKGDFIALDLGGSSFRILRVQVNHEKNQNVHMESEVYDTPENIVHGSGSQLFDHVAECLGDFMEKRKIKDKKLPVGFTFSFPCQQSKIDEAILITWTKRFKASGVEGADVVKLLNKAIKKRGDYDANIVAVVNDTVGTMMTCGYDDQHCEVGLIIGTGTNACYMEELRHIDLVEGDEGRMCINTEWGAFGDDGSLEDIRTEFDRAIDAYSLNPGKQLFEKMVSGMYLGELVRLILVKMAKEGLLFEGRITPELLTRGKFNTSDVSAIEKNKEGLHNAKEILTRLGVEPSDDDCVSVQHVCTIVSFRSANLVAATLGAILNRLRDNKGTPRLRTTVGVDGSLYKTHPQYSRRFHKTLRRLVPDSDVRFLLSESGSGKGAAMVTAVAYRLAEQHRQIEETLAHFHLTKDMLLEVKKRMRAEMELGLRKQTHNNAVVKMLPSFVRRTPDGTENGDFLALDLGGTNFRVLLVKIRSGKKRTVEMHNKIYAIPIEIMQGTGEELFDHIVSCISDFLDYMGIKGPRMPLGFTFSFPCQQTSLDAGILITWTKGFKATDCVGHDVVTLLRDAIKRREEFDLDVVAVVNDTVGTMMTCAYEEPTCEVGLIVGTGSNACYMEEMKNVEMVEGDQGQMCINMEWGAFGDNGCLDDIRTHYDRLVDEYSLNAGKQRYEKMISGMYLGEIVRNILIDFTKKGFLFRGQISETLKTRGIFETKFLSQIESDRLALLQVRAILQQLGLNSTCDDSILVKTVCGVVSRRAAQLCGAGMAAVVDKIRENRGLDRLNVTVGVDGTLYKLHPHFSRIMHQTVKELSPKCNVSFLLSEDGSGKGAALITAVGVRLRTEASS", "values": [
      {"measurement": "soluble on expression in E. coli", "result": "soluble"}
    ]},
    {"sequence": "MIHRIKDEFVNVYIIDRGDHLVLIDTGIESTCEKILKKIEELGKPLKTVIITHYHLDHTGSLKCVKDGTGAKVVAHEEEVKAIEEKTGVRVDVPVKDGDVVEGLKVFHMPGHTRGSICLLDEESGALFVGDLMVERDGKLYEVPQQYSEDPMMNRERIKELLNIEFKAIYPAHGEPVLENAKEKVKELVESFSKGETN", "values": [
      {"measurement": "soluble on expression in E. coli", "result": "soluble"}
    ]},
    {"sequence": "MKAVGLVVEYNPFHNGHLYHAQTAKLQTGCDTAVAVMSGHFLQRGEPAVVSKWARTKMALQSGVDLVIELPYLYAVQKADIFARGSVSILNELECEALFFGSENGDIKPFLETAQLIDEHKHILNDRIKEELKKGASYPAAAAIAFSSILHTESALDLSKPNNILGYQYVTSILTGGYPMKPYTTARISSDYHDADLPEGENHIASATSIRKAMIGQNLEACLRFLPAASARELAAYRKSFGLWHTPESYFSYLKYSLSTVTARELQQVYEVEEGLEHRIIRSIRKSSSYQEFMELLKTKRYTWTRLQRMNTHILTRTKKQDMQKLLDNDKAPYIRLLGMTKKGQAYLSEKKKALSVPLVSKLSSFSHPALDLDVKASRIYSLPIEEPLRTEFDLQEYG", "values": [
      {"measurement": "soluble on expression in E. coli", "result": "not soluble"}
    ]}
  ]
}
